Tests used:
Assay in all cases: purified protein
[1] = system: O=C(CO)[C@@H](O)[C@H](O)C(=O)CO; assay type: biochemical, Gluconobacter oxydans; conditions: NADPH co-substrate, pH 7, 35 °C (optimum)
purified protein [2] = substrate: O=C(CO)[C@@H](O)[C@H](O)C(=O)CO; assay type: biochemical, Clostridium pasteurianum; conditions: NADPH co-substrate, pH 6, 40 °C (optimum)
purified protein [3] = substrate: NC(=O)C1=CN([C@@H]2O[C@H](COP(=O)(O)OP(=O)(O)OC[C@H]3O[C@@H](n4cnc5c(N)ncnc54)[C@H](OP(=O)(O)O)[C@@H]3O)[C@@H](O)[C@H]2O)C=CC1; assay type: biochemical, Clostridium pasteurianum; conditions: 5-KF co-substrate, pH 6, 40 °C (optimum), varied: cofactor
purified protein [4] = substrate: O=C(CO)[C@@H](O)[C@H](O)C(=O)CO; assay type: biochemical, Gluconobacter oxydans; conditions: NADPH co-substrate, pH 7, 30 °C (optimum)
purified protein [5] = substrate: O=C(CO)[C@@H](O)[C@H](O)C(=O)CO; conditions: NADPH co-substrate, pH 7.0, 30 °C, potassium phosphate
purified protein [6] = substrate: NC(=O)C1=CN([C@@H]2O[C@H](COP(=O)(O)OP(=O)(O)OC[C@H]3O[C@@H](n4cnc5c(N)ncnc54)[C@H](OP(=O)(O)O)[C@@H]3O)[C@@H](O)[C@H]2O)C=CC1; conditions: 5-KF co-substrate, pH 7.0, 30 °C, varied: cofactor

GOX0644 (Gluconobacter oxydans 621H) showed a Km [1] of 4000 ± 800 µM and a kcat [1] of 18.9 ± 1.2 s⁻¹.

B1: CP-AKR (Clostridium pasteurianum DSM 525 = ATCC 6013) (protein)
chain: MVKSIKDVITLNNGVEIPQHGFGVYLITDEEKAYKAINKALEVGYRAFDTAQFYENEPLLGKILNESSLSRDELFITTKVANYNQGYDSTLSTVEQSLKDLRVDQLDLLLIHWPSKKRFFETWRAMEKLYNEKLVKAIGVSNYEIHHLEELISNSDIKPVIDQVESHPYLIQQELKDYVDKNNIAFQAWSPLGRGAVLKDPIIKIIAEQHNKSIAQVIIRWHLQKGNIVIPKSITPSRIEENADVYDFALTEEEMKIIDALNRAERTGDDPDSIYFQM
B1 showed a Km (purified protein [2]) of 1300 ± 200 µM, a kcat (purified protein [2]) of 29.3 ± 4.3 s⁻¹ and a Km (purified protein [3]) of 12.4 ± 3.8 µM.

B2: GOX1432 (Gluconobacter oxydans 621H) (protein)
chain: MITRETLKSLPANVQAPPYDIDGIKPGIVHFGVGNFFRAHEAFYVEQILEHAPDWAIVGVGLTGSDRSKKKAEEFKAQDCLYSLTETAPSGKSTVRVMGALRDYLLAPADPEAVLKHLVDPAIRIVSMTITEGGYNINETTGAFDLENAAVKADLQNPEKPSTVFGYVVEALRRRRDAGGKAFTVMSCDNLRHNGNVARKAFLGYAKARDPELAKWIEENATFPNGMVDRITPTVSAEIAKKLNAASGLDDDLPLVAEDFHQWVLEDRFANGRPPLEKAGVQLVDDVTDWEHVKIRMLNAGHITLCFPGILVGYENVDDAIEDKDLRGNLENYLNKDVIPTLKAPPGMTLEGYRDSVISRFSNKAMSDQTLRIASDGCSKIQVFWTETVRRAIECKRDLSRIAFGIASYLEMLRGRDEKGGTYESSEPTYGEAQKKLAKADDFESALKLPAFDGWRDLDTSELDQKVIALRKVIREKGVKAAIPA
For B2, the Km (purified protein [4]) was 42000 ± 5400 µM and the kcat (purified protein [4]) was 214.6 ± 7.5 s⁻¹.

B3: TM-KFR (Tatumella morbirosei) (protein)
chain: AEQQNFLSELTGSFSSPCNENPTVAMMEEAYRHQGINARYINCDVGKQQLEMAVAGAKAMGWRGFNCSIPNKQAILSYIDEVGTSAKVIGAVNCVIIREGKLTGENTDGKGFVEALKQQIDPEGKKLALLGAGGAARAIAVESALAGVSEITIINRDKAKGEALAELINANTDATATYVEWSSGLKVDKNFDILVNATSVGLDDAEAMPDIDTDSLSEELFVADVIPNPPQTALLRAASDKGCRTLNGLNMLVNQGALNLAYWFDTTADKAPMRKVLQTLFTG
For B3, the Km (purified protein [5]) was 6400 ± 600 µM, the kcat (purified protein [5]) was 913.9 ± 85.2 s⁻¹ and the Km (purified protein [6]) was 20.4 ± 11.5 µM.

From paper PMC7954740, “Degradation of the low-calorie sugar substitute 5-ketofructose by different bacteria” (Applied Microbiology and Biotechnology, 2021)
